As usually defined, the Kd is a measure of binding affinity in units of concentration.

Results on 11 molecules are retold here after publication PMC10570036, “Yeast transcription factor Msn2 binds to G4 DNA”.

Series [1] has as its target T1, GST-Msn2(596-704) zinc-finger domain (Saccharomyces cerevisiae, UniProt P33748 596-704).
T1 sequence: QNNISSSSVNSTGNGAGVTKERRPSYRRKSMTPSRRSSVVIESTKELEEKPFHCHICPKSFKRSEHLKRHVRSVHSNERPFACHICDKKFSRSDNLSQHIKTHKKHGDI
Kind of series: EMSA; folded in 100 mM K+; EMSA: oligos (0.1 uM) folded in 10 mM Tris-HCl pH 7.5, 100 mM KCl or LiCl; binding in 10 mM Tris-HCl pH 8.0, 1 mM DTT, 0.01% NP-40, 5% glycerol, 50 uM ZnSO4, room temperature 30 min; pull-down: 400 pmol biotin oligo folded in 100 mM KCl or LiCl, streptavidin beads, yeast whole cell lysate. The conditions noted are these: protein: recombinant, tags: N-terminal GST (pGEX4T1), label: 5' Cy5.

Series [2] deals with T1, GST-Msn2(596-704) zinc-finger domain. Briefly: EMSA; EMSA: oligos (0.1 uM) folded in 10 mM Tris-HCl pH 7.5, 100 mM KCl or LiCl; binding in 10 mM Tris-HCl pH 8.0, 1 mM DTT, 0.01% NP-40, 5% glycerol, 50 uM ZnSO4, room temperature 30 min; pull-down: 400 pmol biotin oligo folded in 100 mM KCl or LiCl, streptavidin beads, yeast whole cell lysate. The conditions noted are these: protein: recombinant; tags: N-terminal GST (pGEX4T1); label: 5' Cy5 on sense strand; blunt. Background: Mobility shift assays separate free from complexed probe on a gel.

For series [3] the target is unchanged. Kind of series: EMSA; folded in K+ or Li+; no significant interaction; EMSA: oligos (0.1 uM) folded in 10 mM Tris-HCl pH 7.5, 100 mM KCl or LiCl; binding in 10 mM Tris-HCl pH 8.0, 1 mM DTT, 0.01% NP-40, 5% glycerol, 50 uM ZnSO4, room temperature 30 min; pull-down: 400 pmol biotin oligo folded in 100 mM KCl or LiCl, streptavidin beads, yeast whole cell lysate. The conditions noted are these: protein: recombinant; tags: N-terminal GST (pGEX4T1); label: 5' Cy5; G4.

Series [4] shares this target. Briefly: EMSA; folded in 100 mM K+; 50 uM Zn2+; EMSA: oligos (0.1 uM) folded in 10 mM Tris-HCl pH 7.5, 100 mM KCl or LiCl; binding in 10 mM Tris-HCl pH 8.0, 1 mM DTT, 0.01% NP-40, 5% glycerol, 50 uM ZnSO4, room temperature 30 min; pull-down: 400 pmol biotin oligo folded in 100 mM KCl or LiCl, streptavidin beads, yeast whole cell lysate. The conditions noted are these: protein: recombinant, tags: N-terminal GST (pGEX4T1), label: 5' Cy5.

For series [5] the target is unchanged. Briefly: EMSA; 100 mM K+; EMSA: oligos (0.1 uM) folded in 10 mM Tris-HCl pH 7.5, 100 mM KCl or LiCl; binding in 10 mM Tris-HCl pH 8.0, 1 mM DTT, 0.01% NP-40, 5% glycerol, 50 uM ZnSO4, room temperature 30 min; pull-down: 400 pmol biotin oligo folded in 100 mM KCl or LiCl, streptavidin beads, yeast whole cell lysate. The conditions noted are these: protein: recombinant; tags: N-terminal GST (pGEX4T1); label: 5' Cy5 on sense strand; blunt.

For the molecule GGACCGAGAGCACACCGAGATAGAGAGTCCGGAGAGTTAAC (ssDNA) [Cy5-ATG39pG4Mut], the binding result in series [1] is listed as “no binding”.
Turning to GGGCGGGCGCGAGGGAGGGG (structured_DNA) [Cy5-c-KIT2], the binding result in series [1] (G4) is given as “no binding”.
The same measure, in the same setting: for ATTCTTGGGGCTGGGGTCCCTTGGGGAACTGTATTGGGTGAACC (structured_DNA) [Cy5-ATG7 G4] the value was “binds”.
For CCGCTGAGCAGGTCAGAGCAGAGACTCTCAGAGAGACGCCA (ssDNA) [Cy5-TPS1pG4Mut], the binding result in series [1] was “no binding”.

B1: dsCTT1STREMut (dsDNA)
DNA 1: CTCTTTTTCATGTGTATCACCGGTATGTGTCCAATCTGTG
DNA 2: CACAGATTGGACACATACCGGTGATACACATGAAAAAGAG
Turning to B1, the binding result in series [2] is listed as “no binding”.
With CCGCTGGGCAGGTCAGGGCAGGGGCTCTCAGGGGGGCGCCA (structured_DNA) [Cy5-TPS1pG4], the binding result in series [1] (G4) is reported as “binds”.
With CCCGGGCGGGCGCGAGGGAGGGGAGG (structured_DNA) [c-KIT2Long], in series [3], the binding result is “no binding”.
As to GGACCGGGGGCACACCGGGGTAGGGGGTCCGGAGGGTTAAC (structured_DNA) [Cy5-ATG39pG4], the dissociation constant (Kd) in series [4] (intramolecular parallel G4) amounted to 30.2 ± 7.2 nM.
Regarding TGGGTGTTGTTGGGGGAGGGAAATGGGT (structured_DNA) [Cy5-BRCA1-G3], the dissociation constant (Kd) in series [4] (parallel G4 in K+) came out at 37.8 ± 11.4 nM.

B2: dsCTT1 (dsDNA)
DNA 1: CTCTTTTTCAAGGGGATCACCGGTAAGGGGCCAATCTGTG
DNA 2: CACAGATTGGCCCCTTACCGGTGATCCCCTTGAAAAAGAG
Consider B2, for which the binding result in series [5] is on record as “binds”.
As for GAGCTGGGGTGAGCTGGGCTGAGCTGGGGTGAGCTGGGCTGAGCT (structured_DNA) [Cy5-SµG], the binding result in series [1] (G4) is “binds”.
